Here are results for 33 molecules from patent publication US20180291110A1 (Hoffmann-La Roche, published 2018).

In assay [1] the target is T1, human transferrin receptor (recombinant, for surface plasmon resonance) (human, UniProt P02786 89-760).
T1 construct: also called huTfR; human transferrin receptor-biotinylated
Kind of assay: SPR 25C.

For assay [2], the target named is T2, Her2 ECD (amino acids 1 to 629 of matured HER2 with C-terminal avi-tag and His-tag) (human, UniProt P04626 23-652).
T2 construct: also called purified Her2
Kind of assay: SPR, Ab captured, Her2 analyte.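 Also: ProteOn XPR36 SPR, rate constants from simultaneous fit of association and dissociation sensorgrams to a 1:1 Langmuir model, buffer-channel referenced, KD taken as koff/kon.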

Residue numbers refer to the chain shown, from its start. Names and notes keep the numbering of the source.

T1 sequence (P02786 89-760 limits assumed): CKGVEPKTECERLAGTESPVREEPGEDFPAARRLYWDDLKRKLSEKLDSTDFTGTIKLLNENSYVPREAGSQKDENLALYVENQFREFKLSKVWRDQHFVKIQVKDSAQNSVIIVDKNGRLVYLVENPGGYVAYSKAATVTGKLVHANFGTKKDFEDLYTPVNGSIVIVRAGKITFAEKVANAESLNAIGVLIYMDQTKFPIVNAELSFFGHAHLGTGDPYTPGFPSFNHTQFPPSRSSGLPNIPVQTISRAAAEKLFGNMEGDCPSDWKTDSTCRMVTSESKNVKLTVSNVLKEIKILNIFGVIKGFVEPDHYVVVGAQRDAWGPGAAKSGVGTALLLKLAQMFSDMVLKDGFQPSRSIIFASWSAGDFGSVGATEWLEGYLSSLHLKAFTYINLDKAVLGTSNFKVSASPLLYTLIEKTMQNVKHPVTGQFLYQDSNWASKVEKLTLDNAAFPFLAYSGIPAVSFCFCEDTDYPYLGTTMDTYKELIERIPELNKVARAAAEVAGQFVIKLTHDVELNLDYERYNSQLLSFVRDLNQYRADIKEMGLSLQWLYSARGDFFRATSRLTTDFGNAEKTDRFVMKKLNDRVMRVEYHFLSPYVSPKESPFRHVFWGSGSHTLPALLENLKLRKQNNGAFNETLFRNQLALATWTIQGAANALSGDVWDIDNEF

B1: 2/99 VH12/VL15 (antibody, V domains shown)
VH: QVQLQESGPGLVKPSETLSLTCTVSGFSLSSYAMSWIRQPPGKGLEWIGYIWSGGSTDYNPSLKSRVTISVDTSKNQFSLKLSSVTAADTAVYYCARRYGTSYPDYGDANGFDPWGQGTLVTVSS
VL: DIVMTQSPDSLAVSLGERATINCKSSQSISSYLIWYQQKPGQPPKLLIYRASTLASGVPDRFSGSGSGTDFTLTISSLQAEDVAVYYCQQAYSSSNVDNTFGGGTKVEIK
Consider B1, for which, in assay [1], the dissociation rate constant (koff) turned out to be 0.00776 s⁻¹.

B2: 2/99 VH20/VL15 (antibody, V domains shown)
VH: QSMQESGPGLVKPSQTLSLTCTVSGFSLSSYAMSWIRQHPGKGLEWIGYIWSGGSTDYAPSLKSRVTISVDTSKNQVSLKLSSVTAADTAVYYCARRYGTSYPDYGDANGFDPWGQGTLVTVSS
VL: B1 VL
B2: the off-rate (koff) in assay [1] is 0.00785 s⁻¹.

B3: 2/99 VH21/VL15 (antibody, V domains shown)
VH: B2 VH with P60S, S61W, L62A
VL: B1 VL
Regarding B3, in assay [1], the off-rate (koff) was determined as 0.00192 s⁻¹.

B4: 2/99 VH17/VL15 (antibody, V domains shown)
VH: B2 VH with S2Q, M3L, Q15E, I36V, H39P, A59N, V70K, Q116P
VL: B1 VL
B4: the koff in assay [1] turned out to be 0.00156 s⁻¹.

B5: 2/99 VH18/VL15 (antibody, V domains shown)
VH: B1 VH with E16Q, P40H, N60A
VL: B1 VL
Turning to B5, the koff in assay [1] was determined as 0.00758 s⁻¹.

B6: 2/99 VH19/VL15 (antibody, V domains shown)
VH: B2 VH with V77F
VL: B1 VL
As for B6, the koff in assay [1] turned out to be 0.001 s⁻¹.

B7: 2/99 VH16/VL15 (antibody, V domains shown)
VH: B2 VH with S2Q, M3L, Q15E, I36V, H39P, A59N, Q116P
VL: B1 VL
Take B7: the off-rate constant (koff) in assay [1] was 0.00477 s⁻¹.

B8: 2/99 VH18/VL17 (antibody, V domains shown)
VH: B1 VH with E16Q, P40H, N60A
VL: AIQLTQSPSSLSASVGDRVTITCRASQSISSYLAWYQQKPGKAPKLLIYRASTLASGVPSRFSGSGSGTDFTLTISSLQPEDFATYYCQQTYSSSNVDNTFGGGTKVEIK
For B8, the off-rate constant (koff) in assay [1] was determined as 0.0053 s⁻¹.

B9: 2/99 VH12/VL17 (antibody, V domains shown)
VH: B1 VH
VL: B8 VL
Turning to B9, in assay [1], the koff was 0.00727 s⁻¹.

B10: 2/99 VH15/VL15 (antibody, V domains shown)
VH: B2 VH with S2Q, M3L, Q15E, I36V, H39P, A59N
VL: B1 VL
For B10, the koff in assay [1] stood at 0.00603 s⁻¹.

B11: 2/99 VH13/VL15 (antibody, V domains shown)
VH: B1 VH with F78V
VL: B1 VL
As to B11, the koff in assay [1] was found to be 0.00711 s⁻¹.

B12: 2/99 VH22/VL15 (antibody, V domains shown)
VH: B2 VH with I36V, P60S, S61W, L62A
VL: B1 VL
Regarding B12, the koff in assay [1] worked out at 0.00179 s⁻¹.

B13: 2/99 VH13/VL17 (antibody, V domains shown)
VH: B1 VH with F78V
VL: B8 VL
For B13, the koff in assay [1] stood at 0.00339 s⁻¹.

B14: 2/99 VH1/VL17 (antibody, V domains shown)
VH: VQLVETGGGLIQPGGSLRLSCAASGFSLSSYAMSWVRQAPGKGLEWVGYIWSGGSTDYADSVKGRFTISRDNSKNTLYLQMNSLRAEDTAVYYCARRYGTSYPDYGDANGFDPWGQGTLVTVSS
VL: B8 VL
As for B14, in assay [1], the dissociation rate constant (koff) came to 0.00756 s⁻¹.

B15: 2/99 VH22/VL17 (antibody, V domains shown)
VH: B2 VH with I36V, P60S, S61W, L62A
VL: B8 VL
Take B15: the off-rate constant (koff) in assay [1] was determined as 0.000938 s⁻¹.

B16: 2/99 VH17/VL17 (antibody, V domains shown)
VH: B2 VH with S2Q, M3L, Q15E, I36V, H39P, A59N, V70K, Q116P
VL: B8 VL
As to B16, the koff in assay [1] worked out at 0.000988 s⁻¹.

B17: 2/99 VH6/VL17 (antibody, V domains shown)
VH: B14 VH with V1Q, V47I
VL: B8 VL
For the molecule B17, the koff in assay [1] is 0.00717 s⁻¹.

B18: 2/99 VH16/VL17 (antibody, V domains shown)
VH: B2 VH with S2Q, M3L, Q15E, I36V, H39P, A59N, Q116P
VL: B8 VL
For the molecule B18, the koff in assay [1] was 0.00166 s⁻¹.

B19: 2/99 VH8/VL17 (antibody, V domains shown)
VH: QQLVETGGGLIQPGGSLRLSCAASGFSLSSYAMSWVRQAPGKGLEWIGYIWSGGSTDYASWAKGRFTISKTSTTLYLQMNSLRAEDTAVYYCARRYGTSYPDYGDANGFDPWGQGTLVTVSS
VL: B8 VL
For the molecule B19, the koff in assay [1] turned out to be 0.00112 s⁻¹.

B20: 2/99 VH20/VL17 (antibody, V domains shown)
VH: B2 VH
VL: B8 VL
Consider B20, for which the koff in assay [1] was found to be 0.00457 s⁻¹.

B21: 2/99 VH7/VL17 (antibody, V domains shown)
VH: B14 VH with V1Q, V47I, D60S, S61W, V62A
VL: B8 VL
On to B21, for which the koff in assay [1] came out at 0.00187 s⁻¹.

B22: 2/99 VH2/VL17 (antibody, V domains shown)
VH: EVQLVETGGGLIQPGGSLRLSCAASGFSLSSYAMSWVRQAPGKGLEWVGYIWSGGSTDYADSVKGRFTISRDNSKNTLYLQMNSLRAEDTAVYYCARRYGTSYPDYGDANGFDPWGQGTLVTVSS
VL: B8 VL
Consider B22, for which the koff in assay [1] worked out at 0.00712 s⁻¹.

B23: 2/99 VH5/VL17 (antibody, V domains shown)
VH: B14 VH with V1Q, Q2S, L3M, V4E, Q116P
VL: B8 VL
B23: the koff in assay [1] is 0.00745 s⁻¹.

B24: 2/99 VH15/VL17 (antibody, V domains shown)
VH: B2 VH with S2Q, M3L, Q15E, I36V, H39P, A59N
VL: B8 VL
Regarding B24, the off-rate constant (koff) in assay [1] turned out to be 0.00169 s⁻¹.

B25: 2/99 VH11/VL17 (antibody, V domains shown)
VH: B14 VH with V1Q, V4L, T6S, I11V
VL: B8 VL
With B25, in assay [1], the off-rate (koff) worked out at 0.00755 s⁻¹.

B26: 2/99 VH9/VL17 (antibody, V domains shown)
VH: B14 VH with V1Q, V4L, T6S, I11V, S27T, L28F, R96K
VL: B8 VL
Turning to B26, the koff in assay [1] was determined as 0.00425 s⁻¹.

B27: 2/99 VH19/VL17 (antibody, V domains shown)
VH: B2 VH with V77F
VL: B8 VL
As for B27, the dissociation rate constant (koff) in assay [1] worked out at 0.001 s⁻¹.

B28: 2/99 VH21/VL17 (antibody, V domains shown)
VH: B2 VH with P60S, S61W, L62A
VL: B8 VL
For the molecule B28, the dissociation rate constant (koff) in assay [1] amounted to 0.000997 s⁻¹.

B29: Pertuzumab HC x Pertuzumab (Tras.L3) G32A LC (antibody, V domains shown)
VH: EVQLVESGGGLVQPGGSLRLSCAASGFTFTDYTMDWVRQAPGKGLEWVADVNPNSGGSIYNQRFKGRFTLSVDRSKNTLYLQMNSLRAEDTAVYYCARNLGPSFYFDYWGQGTLVTVSS
VL: DIQMTQSPSSLSASVGDRVTITCKASQDVSIAVAWYQQKPGKAPKLLIYSASYRYTGVPSRFSGSGSGTDFTLTISSLQPEDFATYYCQQHYTTPPTFGQGTKVEIK
In assay [2], B29 gave a dissociation constant (Kd) of 3.66 nM, a koff of 0.00187 s⁻¹ and an on-rate constant (kon) of 511000 M⁻¹ s⁻¹.

B30: Pertuzumab HC x Pertuzumab (Tras.L3) I31V LC (antibody, V domains shown)
VH: B29 VH
VL: B29 VL with I31V, A32G
In assay [2], B30 gave an equilibrium dissociation constant (Kd) of 4.35 nM, a koff of 0.00192 s⁻¹ and a kon of 440000 M⁻¹ s⁻¹.

B31: Pertuzumab HC x Pertuzumab (Tras.L3) G66R LC (antibody, V domains shown)
VH: B29 VH
VL: B29 VL with A32G, G66R
For the molecule B31, in assay [2], the Kd was found to be 6.91 nM, the koff amounted to 0.00247 s⁻¹ and the kon turned out to be 358000 M⁻¹ s⁻¹.

B32: Pertuzumab HC x Pertuzumab (Tras.L3) K24R LC (antibody, V domains shown)
VH: B29 VH
VL: B29 VL with K24R, A32G
For B32, in assay [2], the Kd stood at 4.62 nM, the koff worked out at 0.00211 s⁻¹ and the kon came out at 457000 M⁻¹ s⁻¹.

B33: Pertuzumab HC x Pertuzumab (Tras.L3) I31T LC (antibody, V domains shown)
VH: B29 VH
VL: B29 VL with I31T, A32G
Take B33: in assay [2], the Kd amounted to 4.06 nM, the koff came out at 0.00175 s⁻¹ and the kon was 431000 M⁻¹ s⁻¹.

The term koff denotes the rate constant with which the complex falls apart. By Kd is commonly meant the concentration at which binding is half-saturated. A lower Kd goes with higher affinity. The term kon denotes the rate constant with which the complex forms.
